Laboratory results: patent publication US20250282874A1

Target: human PD-L1 expressed on cells (human) (UniProt Q9NZQ7)
Assay: flow cytometry on 293T-PD-L1-CD3L cells, PE anti-human IgG, Mean PE-A; fit of a nearly flat control curve

EC50: 29.2 nM
Substance: Isotype control (antibody)
